Laboratory results taken from patent US20230085393A1.

B1: ZIKV-120765-491 (antibody, V domains shown)
VH: EVQLVESGGGLVQPGGSLRLSCAASGFTFIRYAMSWVRQAPGKGLEWVSDISGSGGSTFYADSVKGRFTISRDNSKNTLYLQMNSLRAEDTAVYYCARDDEGYTTNWYDAYDIWGQGTMVTVSS
VL: DIQMTQSPSSLSASVGDRVTITCRASQSIGSYLNWYQQRPGKAPKLLIYTASSLQSGVPSRFSGSGSGTDFILTISSLQPEDFATYYCQQNYNIPQVTFGPGTKVDIK
B2: ZIKV-120764-350 (antibody, V domains shown)
VH: DVQLVESGGGLIQPGGSLRLSCAASGFTARTNYMTWVRQAPGKGLEWVSVIYSGGSTIYADSVKGRFTISRDNAKNSLYLQMNSLRAEDTAVYYCARDRGYLDHWGQGTLVTVSS
VL: EIVLTQSPATLSLSPGERATLSCRASQSVTNYFAWYQQRPGQAPRLLIYDVSNRATGIPARFSGSGSGTDFTLTISSLEPEDFAVYYCQQRSNWPYTFGQGTKVEIK

How the values were obtained:
[1] = target: ZIKV Brazil strain virus (Asian lineage), E2 antigen on virions (Zika virus)
[2] = target: ZIKV Dakar strain virus (African lineage), E2 antigen on virions (Zika virus)

Binder	IC50, RTCA cellular impedance neutralisation assay on Vero cells [1] [µg/mL]	IC50, RTCA cellular impedance neutralisation assay on Vero cells [2] [µg/mL]
B1	< 0.1	< 0.1
B2	< 0.1	< 0.1
